Laboratory results from publication PMC11558822, “Myc 9aaTAD activation domain binds to mediator of transcription with superior high affinity” (Molecular Medicine, 2024).

Tested on: lacZ reporter driven by the lexA operator
Experiment: One hybrid transactivation (β-galactosidase reporter) assay with LexA hybrids in yeast strain L40
Assay type: cell-based, Saccharomyces cerevisiae
Settings: for ß-Gal: raw β-galactosidase activity; for Reporter activation (average value in %): β-galactosidase activity of LexA hybrid, % of positive control p53 construct 6p53 set to 100%, mean ± SD, n = 3; for normalized value in %: β-galactosidase, % of 6p53 mean
[1] = replicate 1 (first sample of the construct)
[2] = replicate 2 (second sample of the construct)
[3] = replicate 3 (third sample of the construct)

| Molecule | ß-Gal [1] | ß-Gal [2] | ß-Gal [3] | Reporter activation (average value in %) | normalized value in % [1] | normalized value in % [2] | normalized value in % [3] | activation function (times) (one hybrid assay, presence versus absence of 9aaTAD (region 100–108) in the construct) |
| --- | --- | --- | --- | --- | --- | --- | --- | --- |
| c-Myc region 1-103: LexA hybrid construct of c-Myc N-terminal region 1–103 without 9aaTAD (protein, UniProt P01106 1-103, looked up, fragment, LexA fusion, LexA hybrid construct of c-Myc N-terminal region 1–103 without 9aaTAD) MDFFRVVENQQPPATMPLNVSFTNRNYDLDYDSVQPYFYCDEEENFYQQQQQSELQPPAPSEDIWKKFELLPTPPLSPSRRSGLCSPSYVAVTPFSLRGDNDG | 25 | 24 | 27 | 9% | 9% | 9% | 10% |  |
| c-Myc region 1-108: LexA hybrid construct of c-Myc N-terminal region 1–108 with 9aaTAD (protein, UniProt P01106 1-108, looked up, fragment, LexA fusion, LexA hybrid construct of c-Myc N-terminal region 1–108 with 9aaTAD) MDFFRVVENQQPPATMPLNVSFTNRNYDLDYDSVQPYFYCDEEENFYQQQQQSELQPPAPSEDIWKKFELLPTPPLSPSRRSGLCSPSYVAVTPFSLRGDNDGGGGSF | 136 | 123 | 139 | 49% | 50% | 45% | 51% | 5 times |
